Consider 3 molecules from article PMC4631838, “Molecular architecture of the yeast Mediator complex” (eLife, 2015).

The target in the experiment is T1, Med14 (Rgr1), Mediator subunit (S. cerevisiae, UniProt P19263 1-1082).
T1 construct: Med14 (Rgr1), S. cerevisiae, endogenous, residues 1-1082 spoken of; source: endogenous, S. cerevisiae CB010 double-tagged strain; within the purified native holoenzyme
T1 sequence (looked up): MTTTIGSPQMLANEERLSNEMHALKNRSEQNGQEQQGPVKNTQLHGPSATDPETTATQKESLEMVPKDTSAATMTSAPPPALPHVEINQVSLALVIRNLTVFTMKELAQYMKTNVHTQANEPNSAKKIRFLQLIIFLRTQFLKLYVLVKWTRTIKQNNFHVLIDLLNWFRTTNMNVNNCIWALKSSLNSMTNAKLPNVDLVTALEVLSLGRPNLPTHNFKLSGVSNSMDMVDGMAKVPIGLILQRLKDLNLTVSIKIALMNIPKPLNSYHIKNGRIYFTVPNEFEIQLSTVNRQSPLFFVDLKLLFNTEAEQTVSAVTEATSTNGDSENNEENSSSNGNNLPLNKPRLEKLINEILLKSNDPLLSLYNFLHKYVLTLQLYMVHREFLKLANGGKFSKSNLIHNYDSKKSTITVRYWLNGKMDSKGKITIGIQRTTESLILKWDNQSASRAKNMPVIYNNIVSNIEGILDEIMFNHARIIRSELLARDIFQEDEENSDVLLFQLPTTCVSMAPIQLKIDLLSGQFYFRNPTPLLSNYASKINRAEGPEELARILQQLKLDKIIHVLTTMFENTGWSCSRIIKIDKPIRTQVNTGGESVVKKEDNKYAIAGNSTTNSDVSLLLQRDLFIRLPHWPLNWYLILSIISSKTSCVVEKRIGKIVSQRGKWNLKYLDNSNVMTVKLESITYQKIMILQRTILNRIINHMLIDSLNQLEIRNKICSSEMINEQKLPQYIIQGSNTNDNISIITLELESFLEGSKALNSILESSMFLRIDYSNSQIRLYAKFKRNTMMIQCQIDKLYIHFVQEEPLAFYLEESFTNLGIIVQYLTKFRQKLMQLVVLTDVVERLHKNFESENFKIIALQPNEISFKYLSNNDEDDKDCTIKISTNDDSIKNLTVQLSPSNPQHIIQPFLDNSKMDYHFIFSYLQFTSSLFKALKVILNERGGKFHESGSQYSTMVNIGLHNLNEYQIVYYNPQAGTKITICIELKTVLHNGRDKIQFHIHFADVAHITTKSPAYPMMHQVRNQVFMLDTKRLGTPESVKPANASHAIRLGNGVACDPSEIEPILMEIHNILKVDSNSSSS
Kind of experiment: cross-linking; BS3 (unlabeled, or 50:50 with 2H12-labeled BS3) on the purified native holoenzyme; 150 mM NaPO4, 150 mM KOAc, pH 7.5, 5% glycerol, 2 mM DTT; procedure A 2.7 mM reagent 120 min on ice; trypsin digest, LC-MS/MS, Protein Prospector. As to conditions: both partners purified.

B1: Med2, Mediator Tail module subunit (natural protein, S. cerevisiae, UniProt Q12124 1-431, looked up)
chain: MVVQNSPVSSVHTANFSERGSNTRTMTYKNKLTVCFDDILKVGAEMMMQQQLKNVQLDSYLVNGFSQSQQKLLKEKVKLFHGILDDLETSLSQSSSYLETLTALGKEKEKEREEAEKKRAEQENMRKVREQEELKKRQELEEASQQQQLQQNSKEKNGLGLNFSTTAPANTTDANGSKENYQELGSLQSSSQTQLENANAANNGAAFSPLTTTRIQSQQAQPSDVMFNDLNSMDISMFSGLDSTGFDSTAFNATVDETKGFDDNDSGNNYNDINISSIENNINNNINSTKNGKDNNNESNKNNNGDEKNKNNNEDNENNNNSSEKNNNNNNNNNNNNDDNGNNNNNNSGNDNNNTTNNDSNNKNNSITTGNDNENIVNNDLPTTVVSNPGDNPPPADNGEEYLTLNDFNDLNIDWSTTGDNGELDLSGFNI
notes: Med2, S. cerevisiae, endogenous; source: endogenous, S. cerevisiae CB010 double-tagged strain; within the purified native holoenzyme
As for B1, the binding result was “binds”.

B2: Med10 (Nut2), Mediator Middle module subunit (natural protein, S. cerevisiae, UniProt Q06213 1-157, looked up)
chain: MNGNSTNNEQLQQELATTQDQVASIIESFVELGVSIYDFPGTPEATKGMITNLQRNVDRLYKLNVRSNDPQSSLSKVDIPLEVVQYIEDGRNPDIYTREFVEAIRRSNQYQRGKMHGLKQLRDSLADKIVDEFPELKEPVEDIIKRTSPIDNVSNTH
notes: Med10 (Nut2), S. cerevisiae, endogenous; source: endogenous, S. cerevisiae CB010 double-tagged strain; within the purified native holoenzyme
As for B2, the binding result is recorded as “binds”.

B3: Med17 (Srb4), Mediator Head module subunit (natural protein, S. cerevisiae, UniProt P32569 1-687, looked up)
chain: MTTEDPDSNHLSSETGIKLALDPNLITLALSSNPNSSLHSPTSDEPVPESAGKADTSIRLEGDELENKTKKDNDKNLKFLKNKDSLVSNPHEIYGSMPLEQLIPIILRQRGPGFKFVDLNEKELQNEIKQLGSDSSDGHNSEKKDTDGADENVQIGEDFMEVDYEDKDNPVDSRNETDHKTNENGETDDNIETVMTQEQFVKRRRDMLEHINLAMNESSLALEFVSLLLSSVKESTGMSSMSPFLRKVVKPSSLNSDKIPYVAPTKKEYIELDILNKGWKLQSLNESKDLLRASFNKLSSILQNEHDYWNKIMQSISNKDVIFKIRDRTSGQKLLAIKYGYEDSGSTYKHDRGIANIRNNIESQNLDLIPHSSSVFKGTDFVHSVKKFLRVRIFTKIESEDDYILSGESVMDRDSESEEAETKDIRKQIQLLKKIIFEKELMYQIKKECALLISYGVSIENENKVIIELPNEKFEIELLSLDDDSIVNHEQDLPKINDKRANLMLVMLRLLLVVIFKKTLRSRISSPHGLINLNVDDDILIIRPILGKVRFANYKLLLKKIIKDYVLDIVPGSSITETEVEREQPQENKNIDDENITKLNKEIRAFDKLLNIPRRELKINLPLTEHKSPNLSLMLESPNYCNALIHIKFSAGTEANAVSFDTTFSDFKEVEDFLHFIVAEYIQQKKV
notes: Med17 (Srb4), S. cerevisiae, endogenous, residues 1-687 spoken of; cross-linking was done after cleavage; also called Med17p; source: endogenous, S. cerevisiae CB010 double-tagged strain; within the purified native holoenzyme; not shown: TAP, N-terminal, cleaved
As to B3, the binding result is “binds”.
